The record followed here is patent US20240026019A1 (Innovent, published 2024).

Broadly, the EC50 is the midpoint of the concentration-response curve. One may read the EC50 (read off the curve) as the concentration at which the effect is half-maximal. A high value points to a less potent agent.

In assay [1] the target is T1, human TNFR2 overexpressed on CHO-S cells (CHOS-hTNFR2) (human, UniProt P20333 23-461).
T1 construct: also called hTNFR2 CHO-S; human TNFR2 molecule overexpressed on CHO-S cells
T1 sequence: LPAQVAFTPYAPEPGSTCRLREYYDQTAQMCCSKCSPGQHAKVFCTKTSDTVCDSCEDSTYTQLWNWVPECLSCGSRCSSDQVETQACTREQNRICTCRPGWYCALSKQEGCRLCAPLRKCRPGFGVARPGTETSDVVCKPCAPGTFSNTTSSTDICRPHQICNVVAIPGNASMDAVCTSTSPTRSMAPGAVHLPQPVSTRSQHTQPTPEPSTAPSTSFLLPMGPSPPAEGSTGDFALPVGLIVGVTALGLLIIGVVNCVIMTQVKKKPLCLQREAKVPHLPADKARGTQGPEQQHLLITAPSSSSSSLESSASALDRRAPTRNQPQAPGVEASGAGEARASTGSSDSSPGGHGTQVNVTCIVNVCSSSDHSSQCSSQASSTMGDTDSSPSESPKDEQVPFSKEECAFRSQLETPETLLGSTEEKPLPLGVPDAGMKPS
As to the kind of experiment: flow cytometry on CHO-S cells overexpressing human TNFR2 (chimeric antibody 69B1 beside the humanized antibodies), MFI-FL2A; unit taken from the axis Conc log(nM). As to the method: (§1) In the study, the binding of the antibodies, after being diluted in a gradient, to a stable CHO-S strain line overexpressing human TNFR2 on the surface was assayed by using a flow cytometer.
(§2) CHOS-hTNFR2 cells were counted and diluted to 2×10⁶ cells/mL, and added to a U-bottom 96-well plate at 100 μL/well. The mixture was centrifuged at 300 g for 5 min, and the cell medium was removed. Samples (the humanized antibodies hz3C4.7, hz69B1.5, hz69B1.6, hz69B1.11 and hz69B1.20, the chimeric antibody 69B1, and the positive control antibody OPI) (the antibodies were subjected to a three-fold dilution in PBS from the maximum antibody concentration of 300 nM) were added to the U-plate, and the cells were resuspended at 100 μL/well and left to stand on ice for 30 min. The suspension was centrifuged at 400 g for 5 min, and the supernatant was removed. The cells were washed twice with PBS. The mixture was centrifuged at 300 g for 5 min, and PBS was removed. 100 μL of anti-human Fc PE-labeled secondary antibody (SoutherBiotech; 2040-09) (diluted at a 1:100 ratio in PBS) was added to each well and incubated on ice for 30 min in the dark. The mixture was centrifuged at 400 g for 5 min, and the supernatant was removed. The cells were washed 3 times with PBS. The cells were resuspended in 200 μL of 1×PBS and assayed by FACS.

Assay [2] has as its target T2, TNFR2 on human K562 chronic myeloid leukemia cells and on primary human Treg cells (human, UniProt P20333 23-461).
T2 construct: whole, on cells; also called K562 cells
T2 sequence (looked up): T1 sequence
The experiment in a line: flow cytometry on human K562 CML cells, MFI(FL2); unit taken from the axis Conc log(nM). On the procedure:
(§3) Assay steps: The mixture was centrifuged at 400 g for 5 min, and the cell medium was removed. K562 or Treg cells were resuspended in PBS. After counting, the cells were adjusted to a density of 2×10⁶/mL, and the cell suspension was added to a U-bottom 96-well plate at 100 μL/well. The test antibody was added, subjected to a three-fold gradient dilution, and left to stand on ice for 30 min. The mixture was centrifuged at 300 g for 5 min, and the supernatant was removed. The cells were washed once with PBS. The mixture was centrifuged at 300 g for 5 min, and PBS was removed. 100 μL of PE-anti-human Fc antibody (SOUTHERN BIOTECH, 2040-09) diluted at a ratio of 1:200 was added to each well. The mixture was incubated on ice for 30 min in the dark. The mixture was centrifuged at 400 g for 5 min, and the supernatant was removed. The cells were washed twice with PBS. The cells were resuspended in 100 μL of PBS and assayed by using a flow cytometer (BD, ACCURIC6 plus).
(Flow cytometry measures light scatter and fluorescence of single cells or particles in a stream.)

In assay [3] the target is T2, TNFR2 on human K562 chronic myeloid …. As to the kind of experiment: flow cytometry on primary human Treg cells, MFI(FL2); unit taken from the axis Conc log(nM). On the procedure: Tregs were prepared as follows: Human PBMC cells ([…], PB005F) were thawed, CD4⁺ CD25⁺ CD127^low cells were sorted by flow cytometry, and Treg cells were isolated. According to CD4⁺:anti-CD3/CD28 Beads=1:1, Dynabeads Human T-Activator CD3/CD28 (Gibco, 11131D) was added, followed by 10 ng/mL recombinant IL2, and the cells were stimulated for 7 days.
as §3

Assay [4] has as its target T1, human TNFR2 overexpressed on CHO-S …. The experiment in a line: flow cytometry on CHO-S cells overexpressing human TNFR2 (positive control beside the hybridoma antibodies), MFI. As to the method: In the study, the binding of the hybridoma antibodies (3C4, 69B1, and 72G8) of the present invention, after being diluted in a gradient, to a stable CHO-S cell strain overexpressing human TNFR2 on the surface was assayed by using a flow cytometer.
CHOS-hTNFR2 cells or CHOS-cTNFR2 cells were counted and diluted to 2×10⁶ cells/mL, and added to a U-bottom 96-well plate at 100 μL/well. The mixture was centrifuged at 300 g for 5 min, and the cell medium was removed. The dilutions of the samples (the hybridoma antibodies 3C4, 69B1, and 72G8 and the positive control antibody OPI) (the antibodies were subjected to a two-fold serial dilution in PBS from the maximum antibody concentration of 300 nM) were added to the U-plate, and the cells were resuspended at 100 μL/well and left to stand on ice for 30 min. The suspension was centrifuged at 400 g for 5 min, and the supernatant was removed. The cells were washed twice with PBS. The mixture was centrifuged at 300 g for 5 min, and PBS was removed. […] The mixture was centrifuged at 400 g for 5 min, and the supernatant was removed. The cells were washed 3 times with PBS. The cells were resuspended in 200 μL of 1×PBS and assayed by FACS.

Assay [5] shares this target. As to the kind of experiment: flow cytometry on CHO-S cells overexpressing human TNFR2 (positive control), MFI-FL2A; unit taken from the axis Conc log(nM). On the procedure: as §1, §2

B1: chimeric antibody 69B1 (antibody, human IgG1, kappa, V domains shown)
VH: QIQLVQSGPELKKPGETVKISCKASGYTFTDYSMNWVKQAPGKGLKWMGWLNTETGEPIYADDFKGRFVFSLETSASTAYLEINNLNDEDTATYFCAREAIYYGTSYVLDYWGQGTSVTVSS
VL: DIVLTQSPASLAVSLGQRATISCRASESVEYYGTNFMQWYQQKPGQPPKLLIYSASNVESGVPARFSGSGSGTDFSLNIHPVEEDDIAVYFCQQSRKDPSTFGEGTNLEIKR
Regarding B1, the EC50 in assay [1] is 0.489 nM.

B2: positive control antibody OPI (humanized antibody SBT-002e in WO 2017083525) (antibody, V domains shown)
VH: QVTLKESGPALVKPTQTLTLTCTFSGFSLSTSGMGVGWIRQPPGKALEWLAHIWWDDDKFYNPSLKSRLTISKDTSKNQVVLTMTNMDPVDTATYYCARLTGTRYFDYWGQGTTVTVSS
VL: DVQMTQSPSSLSASVGDRVTITCKASQDINKFIAWYQQKPGKAPKLLIHYTSTLQPGIPSRFSGSGSGRDYTFTISSLQPEDIATYYCLQYGNLWTFGGGTKVEIK
notes: also called Benchmark OPI
For the molecule B2, the EC50 in assay [2] stood at 0.0916 nM; in assay [3], 0.0738 nM; in assay [5] it was 0.486 nM. In addition, the “EC50 (read off the curve)” value in assay [4] was about 2 nM.
